Data as given in patent CN114835808A (dated 2022).

Biological target: T1, 重组cTnI抗原 (UniProt P19429 1-210, limits assumed)
T1 construct: Both are treated here as the same coating of the same experiment
Assay: indirect ELISA, recombinant cTnI coated, enzyme-labelled secondary antibody

T1 sequence (P19429 whole entry): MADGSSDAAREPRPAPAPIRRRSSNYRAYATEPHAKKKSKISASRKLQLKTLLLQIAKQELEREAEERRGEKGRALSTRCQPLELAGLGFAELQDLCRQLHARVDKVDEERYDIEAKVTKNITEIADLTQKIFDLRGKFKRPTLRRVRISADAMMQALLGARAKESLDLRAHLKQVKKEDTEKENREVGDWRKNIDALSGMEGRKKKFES

B1: cTnI抗体突变4 (antibody, V domains shown)
VH: EVQLVESGGDLVTPGGSLKLSCTASGFTFSNYAMSWVRQTPEKRLEWVATISSGGTYTFYPDSVKGRFTISRDNAKNTLYLQMSSLRSEDTAIYYCTAAGAFDGEKALDYWGQGTSVTVSS
VL: DIQMNQSTSSLSASLGDRVTISCRASQDISSYLNWYQQRADGTIKLLIYFTSRLHSGVPSRFSGSGSGTDYSLTISNLEQEDIATYFCQQGNTVAATFGGGTRLEIK
notes: Mutant of a mouse anti-cTnI monoclonal antibody, made recombinantly by transient expression and purified on SPA; also called 突变抗体4
binding result: no binding (tested: 检测值小于0.05基本可判定无活性 (阴性对照0.047左右))
